Several values for one entry are separate records, joined by “and”; a condition that tells them apart may be missing. Identical values can stand only once.
Experiments:
[1] = Circular dichroism spectroscopy; assay type: physicochemical
Method: The conformational stability of the AL protease was examined by circular dichroism (CD) spectroscopy and compared with that of Subtilisin Carlsberg (bacterial protease, type VIII; Sigma Chemical Co., St. Louis, USA). The CD spectra of the proteins were obtained on a Jasco spectropolarimeter model J-720, at 25° C. in the far UV range from 195 to 250 nm at a scan rate of 10 nm/min using a sample cell path length of 0.1 cm. The ellipticity values (θ) for every nm wavelength increase were obtained in mdeg directly from the instrument and were recorded online in a computer. An average of 6 scans was calculated and the corresponding no-enzyme spectra were subtracted for each sample.

keratin azure = assay: Keratinolytic activity; assay type: biochemical; settings: 10 mM glycine-NaOH, pH 10 at 50° C.
Method: The hydrolysis of keratin azure (Sigma) by the AL protease was determined according to the modified method of Santos et al. (1996). The reaction mixture (1.5 ml) comprising 0.5 ml of the enzyme solution and 10 mg keratin-azure in 10 mM glycine-NaOH buffer, pH 10 was incubated at 50° C. with constant shaking over 24 h period. The substrate was removed by centrifugation and liberation of the azo dye was measured at 595 nm. The reaction under similar conditions using heat-treated enzyme (by incubation in a boiling water bath for 15 min) was also run as a control. One unit (U) of keratinolytic activity was defined as an increase in the A595nm of 0.01 after 2 h.

[2] = Calcium content by ICP-SMS; assay type: physicochemical; settings: after treatment with chelex
Method: One millilitre of the purified AL protease (3 mg protein) solution was dialyzed for 24 h at 4° C. against 1 L of 10 mM glycine-NaOH buffer, pH 10.0, pretreated for 48 h with Chelex 100 (BioRad, Hercules, Calif., USA; […]) placed in a dialysis bag. Thereafter the dialysis was repeated three times against the buffer containing Chelex 100 (1.5 g/l) for a total period of 36 h at 4° C. The buffer was prepared from deionised water and plastic containers were used throughout. The residual calcium content In the enzyme sample was determined using Inductively Coupled Plasma-Mass Spectrometry (ICP-SMS).

elastin-orcein = assay: Elastolytic activity; assay type: biochemical; settings: 100 mM Tris-HCl buffer pH 8.8, 37° C.
Method: Elastolytic activity of AL protease was estimated by the method of (Tsai et al. 1983) with slight modification. The reaction mixture in a total volume of 1.5 ml comprised of 20 mg elastin-orcein and an appropriate amount of the enzyme in 100 mM Tris-HCl buffer pH 8.8, was incubated at 37° C. for 1 h with constant shaking. The substrate was removed by centrifugation and increase in optical density was measured at 590 nm. A control reaction was performed using the denatured enzyme as described above. The concentration of soluble products liberated was calculated from a standard curve using elastase. One unit was defined as the amount of enzyme, which solubilizes 100 μg of elastin under standard reaction conditions.

oxidized insulin B-chain = assay: Hydrolysis of oxidized insulin B-chain (MALDI-TOF); assay type: biochemical; settings: 50° C., enzyme-substrate molar ratio of 1:100, pH 9
Method: To 0.38 mg of the oxidized insulin B-chain (Sigma) dissolved in 1 ml of 10 mM Tris-HCl buffer, pH 9 was added 10 μl (5.5 units) of the AL enzyme. The mixture was incubated at 50° C. for 15 min and 12 h, respectively, after which one drop (approx 40 μl) of 0.1% (v/v) TFA was added to inactivate the enzyme.
Identification of the cleavage products was performed on a matrix assisted laser desorption ionisation reflectron-type time-of-flight (MALDI-TOF) mass spectrometer (REFLEX, Bruker-Franzen Analytik; Bremen, Germany).
Cleavage of oxidized insulin B-chain by the AL protease at 50° C. was investigated using an enzyme-substrate molar ratio of 1:100. The reaction products were analyzed by MALDI-TOF mass spectrometry and identified from the mass of corresponding peptide pairs.

[3] = Differential scanning calorimetry; assay type: physicochemical
Method: The influence of different parameters including pH, calcium ions, EDTA, and detergent on thermal stability of the AL protease was investigated by differential scanning calorimetry (DSC). Comparative studies were also performed with Subtilisin Carlsberg. Thermal scans of AL protease (0.3 mg protein/ml) and subtilisin (2.5 mg protein/ml in the presence of 1 mM phenyl-methanesulfonyl fluoride (PMSF); Sigma) were performed by increasing temperature from 25° C. to 95° C. at a scan rate of 1° C. per min on a VP-DSC (MicroCal, Northampton, Mass.). The thermograms were corrected by subtracting the base line, obtained from a blank scan of the no-enzyme solution, and normalized for protein concentration. The unfolding transition of the AL protease was fitted to a two-state model. The Tm (temperature at which heat capacity change is a maximum), the calorimetric (or true) enthalpy ΔHcal (peak area), and van't Hoff (or apparent) enthalpy AHVH (calculated from the shape of thermogram) were calculated using the Origin software provided by MicroCal.

[4] = pre-treated with chelex, or with 5 mM Ca^2+ or 10.0 mM EDTA, pH 10.0
[5] = untreated, 10 mM glycine-NaOH buffer, pH 10.0 (subtilisin with 1 mM PMSF)

B1: AL protease: thermostable alkaline, non-Ca2+-dependent serine protease isolated from Nesterenkonia sp. nov. strain AL (DSM 15380); SEQ. ID. NO. 1 (protein, listed as Nesterenkonia sp.)
chain: QNPADSPHIGKVFFSTNQGDFVCSANIVASANQSTVATAGHCLHDGNGGQFARNFVFAPAYDYGESEHGVWAAEELVTSAEWANRGDFEHDYAFAVLETKGGTTVQQQVGTASPIAFNQPRGQYYSAYGYPAAAPFNGQELHSCHGTATNDPMGSSTQGIPCNMTGGSSGGPWFLGQGTGGAQNSVNSYGYTFLPDVMFGPYFGSGAQQNYNYAST
[1]; 0.1-1% (w/v) SDS, data not shown
  Secondary structure in the presence of SDS: no alteration
[1]; 24 h at 50° C., 10 mM glycine-NaOH buffer, pH 10.0
  Secondary structure after incubation: undisturbed
Keratin azure
  Time of main hydrolysis of keratin-azure: 2 to 12 h
[2]
  Ca^2+ content: 0.109 mol/mol
elastin-orcein
  Hydrolysis of elastin-orcein: able to hydrolyse elastin-orcein to a detectable level
Oxidized insulin B-chain
  Initial cleavage site in oxidized insulin B-chain: Leu^15-Ty^16
[3]; 1% SDS vs untreated, pH 10.0
  Decrease in Tm: 1.4 °C
  Decrease in ΔHcal: 4 kcal/mol
[3]; +0.1% SDS, pH 10.0
  Tm: 74.5 ± 0.03 °C
  ΔHcal: 158 ± 0.7 kcal/mol
[3]; +0.5% SDS, pH 10.0
  Tm: 74.1 ± 0.02 °C
  ΔHcal: 158 ± 0.7 kcal/mol
[3]; +1% SDS, pH 10.0
  Tm: 73.1 ± 0.02 °C
  ΔHcal: 154 ± 0.6 kcal/mol
[3]; at any given pH
  Mean ratio of ΔHcal to ΔHvH: close to unity (±0.05)
[3]; pH 6
  Tm: 69.7 °C and 69.7 ± 0.02 °C
  ΔHcal: 141 kcal/mol and 141.0 ± 0.5 kcal/mol
  ΔHcal/ΔHvH: 0.94
  ΔHvH: 150.0 ± 1.2 kcal/mol
[3]; pH 7
  Tm: 73.5 ± 0.02 °C
  ΔHcal: 149.0 ± 0.5 kcal/mol
  ΔHcal/ΔHvH: 1.02
  ΔHvH: 147.0 ± 1.2 kcal/mol
[3]; pH 7-10
  Melting temperature: about 74 °C
[3]; pH 8
  Tm: 74.3 ± 0.02 °C
  ΔHcal: 158.0 ± 0.5 kcal/mol
  ΔHcal/ΔHvH: 0.93
  ΔHvH: 171.0 ± 1.2 kcal/mol
[3]; pH 9
  Tm: 74.5 ± 0.02 °C
  ΔHcal: 157.5 ± 0.5 kcal/mol
  ΔHcal/ΔHvH: 1.02
  ΔHvH: 155.0 ± 1.3 kcal/mol
[3]; pH 10
  Tm: 74.5 ± 0.03 °C
  ΔHcal: 158 kcal/mol and 158.0 ± 0.5 kcal/mol
  ΔHcal/ΔHvH: 0.95
  ΔHvH: 167.0 ± 1.7 kcal/mol
[3]; pH 11
  Tm: 72.0 °C and 72.6 ± 0.02 °C
  ΔHcal: 142 kcal/mol and 141.5 ± 0.5 kcal/mol
  ΔHcal/ΔHvH: 1.01
  ΔHvH: 141.0 ± 1.3 kcal/mol
[3]; pH range of 8.0-10.0
  Melting temperature, Tm: around 74 °C
[3]; [4]
  Melting profile and denaturation temperature: unaltered
  ΔHcal: around 158±0.5 kcal/mol
[3]; [5]
  Tm: 74.5 ± 0.03 °C
  ΔHcal: 158 ± 0.6 kcal/mol

— patent US20060142171A1, “Novel alkaline protease” (priority 2003, published 2006)
